B1: phaA: acyltransferase, E. coli optimized PhaA sequence originally from Ralstonia sp., EC 2.3.1.9, SEQ ID NOS 3 and 4 (protein)
chain: MTDVVIVSAARTAVGKFGGSLAKIPAPELGAVVIKAALERAGVKPEQVSEVIMGQVLTAGSGQNPARQAAIKAGLPAMVPAMTINKVCGSGLKAVMLAANAIMAGDAEIVVAGGQENMSAAPHVLPGSRDGFRMGDAKLVDTMIVDGLWDVYNQYHMGITAENVAKEYGITREAQDEFAVGSQNKAEAAQKAGKFDEEIVPVLIPQRKGDPVAFKTDEFVRQGATLDSMSGLKPAFDKAGTVTAANASGLNDGAAAVVVMSAAKAKELGLTPLATIKSYANAGVDPKVMGMGPVPASKRALSRAEWTPQDLDLMEINEAFAAQALAVHQQMGWDTSKVNVNGGAIAIGHPIGASGCRILVTLLHEMKRRDAKKGLASLCIGGGMGVALAVERK
modifications: Ralstonia sp., strain EMBL EON20543.1
B2: bktB: Beta-ketothiolase, E. coli optimized bktB sequence originally from Cupriavidus necator ATCC 17699, SEQ ID NOS 1 and 2 (protein)
chain: MTREVVVVSGVRTAIGTFGGSLKDVAPAELGALVVREALARAQVSGDDVGHVVFGNVIQTEPRDMYLGRVAAVNGGVTINAPALTVNRLCGSGLQAIVSAAQTILLGDTDVAIGGGAESMSRAPYLAPAARWGARMGDAGLVDMMLGALHDPFHRIHMGVTAENVAKEYDISRAQQDEAALESHRRASAAIKAGYFKDQIVPVVSKGRKGDVTFDTDEHVRHDATIDDMTKLRPVFVKENGTVTAGNASGLNDAAAAVVMMERAEAERRGLKPLARLVSYGHAGVDPKAMGIGPVPATKIALERAGLQVSDLDVIEANEAFAAQACAVTKALGLDPAKVNPNGSGISLGHPIGATGALITVKALHELNRVQGRYALVTMCIGGGQGIAAIFERI
modifications: Cupriavidus necator

Tests used:
[1] = In vitro DTNB thiolase activity assay on clarified cell lysates, butyryl-CoA substrate; assay type: biochemical; conditions: lysate of BL21 E. coli expressing the thiolase; 0.5 mM butyryl-CoA, 0.2 mM acetyl-coA, 0.5 mM DTNB, pH 7.4, 412 nm; no-substrate background subtracted; triplicate
Protocol: (§1) Plasmids containing the optimized thiolase genes were transformed into BL21 E. coli cells. Empty plasmid pTrcHisA was also transformed as a negative control. For expression and characterization experiments, shake flasks containing 40 mL TB were innoculated at 5% from overnight cultures. Flasks were incubated at 30° C. at 250 rpm shaking for 2 hours, then protein production was induced with 0.2 mM IPTG and incubated for 4 more hours at 30° C. while shaking. Cells were harvested by centrifugation and pellets were stored at −80° C.
(§2) Activity of thiolase candidates were assessed with an in vitro assay using DTNB (5,5′-Dithiobis(2-nitrobenzoic acid)) as an indicator. The enzyme activity was tested using two different substrates: crotonoyl-CoA and butyryl-CoA. The DTNB interacts with the free thiol created by the condensation of acetyl-CoA and the substrate present (butyryl-CoA or crotonoyl-CoA). Unless otherwise specified, all chemicals were purchased from Sigma-Aldrich Chemical Company, ST. Louis, Mo.
(§3) Cells were lysed using mechanical disruption using a BeadBeater (BioSpec products, Bartlesville, Okla.) using the manufacturer's instructions. The cell lysate was partially clarified by centrifugation (14,000 G for 5 minutes). Protein concentrations of the resulting clarified lysates were measured via BioRad Total Protein assay using the manufacturer's instructions. Lysates were normalized by protein concentration by dilution in 10 mM Tris buffer. The normalized lysates were diluted 1 to 5 in 10 mM Tris buffer. 20 ul of lysate was added to each well for the 96-well plate assay. Each condition was performed in triplicate.
(§4) The reaction mixture contains 10 mM Tris pH 7.4, 5 mM MgSO4, 0.2 mM acetyl-coA, 0.5 mM DTNB, 0.5 mM substrate (either butyryl-CoA or crotonoyl-CoA). […] The reactions in these microplates were monitored at 412 nm. Readings were taken every 9 seconds for 5 minutes and the data was used to calculate activities of each enzyme. The reactions using crotonoyl-CoA as substrate required a 60 sec incubation period before rates were able to be measured.

[2] = In vitro DTNB thiolase activity assay on clarified cell lysates, crotonoyl-CoA substrate; assay type: biochemical; conditions: lysate of BL21 E. coli expressing the thiolase; 0.5 mM crotonoyl-CoA, 0.2 mM acetyl-coA, 0.5 mM DTNB, pH 7.4, 412 nm; 60 sec incubation before measurement; no-substrate background subtracted; triplicate
Protocol: as §1, §2, §3, §4

| Molecule | Average Activity with background subtracted, Butyryl coenzyme A [1] | Average Activity with background subtracted, Crotonoyl coenzyme A [2] |
| --- | --- | --- |
| thl: acetyl-CoA acetyltransferase, E. coli optimized thl sequence originally from Clostridium acetobutylicum ATCC 824, SEQ ID NOS 5 and 6 | 0.039 µmol/min/mg | 0.0021 µmol/min/mg |
| B1 | 0.053 µmol/min/mg | 0.0001 µmol/min/mg |
| B2 | 0.069 µmol/min/mg | 0.0043 µmol/min/mg |
